Laboratory results taken from PMC9482650, “Quantitative fragmentomics allow affinity mapping of interactomes” (Nature Communications, 2022).

Tests used:
Assay in all cases: holdup assay
Design in all cases: key: below the threshold = too weak to quantify, mostly under pKd 3.1 to 4
[1] = target: NHERF2_2, Q15599
[2] = target: PDZRN4_1, Q6ZMN7
[3] = target: T1, LIN7C, Q9NUP9
T1 sequence (Q9NUP9 88-185, limits assumed, looked up): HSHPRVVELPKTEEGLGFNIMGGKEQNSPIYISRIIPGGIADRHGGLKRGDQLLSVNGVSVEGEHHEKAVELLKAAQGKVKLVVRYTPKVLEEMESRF

[4] = target: T2, SNTG1, Q9NSN8
T2 sequence (Q9NSN8 52-150, limits assumed, looked up): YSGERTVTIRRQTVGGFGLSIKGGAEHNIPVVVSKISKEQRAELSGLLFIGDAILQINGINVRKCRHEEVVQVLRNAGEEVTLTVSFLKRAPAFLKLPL

[5] = target: LNX1_1, Q8TBB1
Sequence of LNX1_1, Q8TBB1 (Q8TBB1 261-371): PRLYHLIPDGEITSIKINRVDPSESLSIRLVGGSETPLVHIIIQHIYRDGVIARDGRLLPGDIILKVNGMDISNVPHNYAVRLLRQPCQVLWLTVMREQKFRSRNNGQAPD

[6] = target: FRMPD3, Q5JV73
Sequence of FRMPD3, Q5JV73 (Q5JV73 12-100): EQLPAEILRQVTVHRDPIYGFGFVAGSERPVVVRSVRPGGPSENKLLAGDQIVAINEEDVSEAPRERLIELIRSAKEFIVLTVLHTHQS

[7] = target: DLG4_2, P78352
Sequence of DLG4_2, P78352 (P78352 155-259): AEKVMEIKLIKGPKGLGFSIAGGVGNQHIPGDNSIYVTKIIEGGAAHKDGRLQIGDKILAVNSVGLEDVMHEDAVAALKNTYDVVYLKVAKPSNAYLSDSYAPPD

[8] = target: NHERF4_2, Q86UT5
Sequence of NHERF4_2, Q86UT5 (Q86UT5 220-308): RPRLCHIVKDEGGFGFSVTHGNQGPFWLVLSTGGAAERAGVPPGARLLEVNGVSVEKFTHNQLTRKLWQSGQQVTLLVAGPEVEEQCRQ

[9] = target: T3, NHERF3_4, Q5T2W1
T3 sequence (Q5T2W1 373-468, limits assumed, looked up): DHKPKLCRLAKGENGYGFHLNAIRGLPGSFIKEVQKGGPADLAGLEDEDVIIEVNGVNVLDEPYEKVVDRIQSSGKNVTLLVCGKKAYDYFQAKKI

[10] = target: T4, DFNB31_3, Q9P202
T4 sequence (Q9P202 811-907, limits assumed, looked up): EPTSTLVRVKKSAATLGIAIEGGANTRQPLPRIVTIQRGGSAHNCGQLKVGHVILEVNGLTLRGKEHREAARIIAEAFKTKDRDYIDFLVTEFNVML

[11] = target: GORASP1, Q9BQQ3
Sequence of GORASP1, Q9BQQ3 (Q9BQQ3 1-208): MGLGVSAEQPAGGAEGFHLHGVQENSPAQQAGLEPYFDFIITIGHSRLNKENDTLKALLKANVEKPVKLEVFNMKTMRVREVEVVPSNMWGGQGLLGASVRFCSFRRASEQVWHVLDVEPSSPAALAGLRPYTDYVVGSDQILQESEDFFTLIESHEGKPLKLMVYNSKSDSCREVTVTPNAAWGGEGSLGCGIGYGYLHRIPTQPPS

[12] = target: T5, NHERF3_1, Q5T2W1
T5 sequence (Q5T2W1 4-100, limits assumed, looked up): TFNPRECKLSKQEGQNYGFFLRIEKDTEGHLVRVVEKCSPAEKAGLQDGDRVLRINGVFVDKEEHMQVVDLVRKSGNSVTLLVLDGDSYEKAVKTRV

[13] = target: SCRIB_1, Q14160
Sequence of SCRIB_1, Q14160 (Q14160 718-814): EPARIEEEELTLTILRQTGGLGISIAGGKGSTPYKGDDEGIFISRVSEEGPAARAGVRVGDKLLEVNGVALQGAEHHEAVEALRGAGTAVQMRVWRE

[14] = target: MAGI2_3, Q86UL8
Sequence of MAGI2_3, Q86UL8 (Q86UL8 600-682): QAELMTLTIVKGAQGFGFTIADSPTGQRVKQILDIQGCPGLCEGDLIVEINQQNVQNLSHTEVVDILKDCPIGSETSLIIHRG

[15] = target: T6, SYNJ2BP, P57105
T6 sequence (P57105 8-110, limits assumed, looked up): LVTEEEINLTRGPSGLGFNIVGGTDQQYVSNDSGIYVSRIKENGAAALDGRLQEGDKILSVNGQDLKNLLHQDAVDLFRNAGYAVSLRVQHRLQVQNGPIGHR

[16] = target: MAST1, Q9Y2H9
Sequence of MAST1, Q9Y2H9 (Q9Y2H9 962-1065): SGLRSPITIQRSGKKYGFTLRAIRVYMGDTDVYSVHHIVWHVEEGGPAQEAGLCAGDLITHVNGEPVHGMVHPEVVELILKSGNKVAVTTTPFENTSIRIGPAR

[17] = target: T7, SHANK1, Q9Y566
T7 sequence (Q9Y566 658-767, limits assumed, looked up): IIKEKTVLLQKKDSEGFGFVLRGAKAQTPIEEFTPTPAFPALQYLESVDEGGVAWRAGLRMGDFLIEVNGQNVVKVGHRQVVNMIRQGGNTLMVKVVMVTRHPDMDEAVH

[18] = target: PTPN3, P26045
Sequence of PTPN3, P26045 (P26045 505-587): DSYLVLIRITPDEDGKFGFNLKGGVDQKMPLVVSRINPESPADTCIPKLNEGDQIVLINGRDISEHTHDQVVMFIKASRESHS

[19] = target: Inadl_8, Q8NI35
Sequence of Inadl_8, Q8NI35 (Q8NI35 1425-1530): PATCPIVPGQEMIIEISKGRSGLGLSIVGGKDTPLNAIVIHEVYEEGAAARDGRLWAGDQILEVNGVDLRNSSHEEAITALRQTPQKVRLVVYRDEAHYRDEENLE

[20] = target: T8, LNX2_2, Q8N448
T8 sequence (Q8N448 334-432, limits assumed, looked up): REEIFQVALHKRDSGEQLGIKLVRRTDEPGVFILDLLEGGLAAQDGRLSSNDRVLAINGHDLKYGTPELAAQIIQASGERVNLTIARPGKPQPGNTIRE

[21] = target: GORASP2, Q9H8Y8
[22] = target: DLG4_1, P78352
Sequence of DLG4_1, P78352 (P78352 62-152): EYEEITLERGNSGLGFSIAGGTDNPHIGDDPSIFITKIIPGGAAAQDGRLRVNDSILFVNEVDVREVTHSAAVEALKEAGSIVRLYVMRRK

[23] = target: TJP1_2, Q07157
Sequence of TJP1_2, Q07157 (Q07157 181-274): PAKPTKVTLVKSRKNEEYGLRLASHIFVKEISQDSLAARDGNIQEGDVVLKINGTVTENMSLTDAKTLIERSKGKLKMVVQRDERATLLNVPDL

[24] = target: T9, MPP2, Q14168
T9 sequence (Q14168 180-250, limits assumed, looked up): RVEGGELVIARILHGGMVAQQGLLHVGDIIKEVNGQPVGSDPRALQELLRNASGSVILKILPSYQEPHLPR

[25] = target: T10, RHPN1, Q8TCX5
T10 sequence (Q8TCX5 508-602, limits assumed, looked up): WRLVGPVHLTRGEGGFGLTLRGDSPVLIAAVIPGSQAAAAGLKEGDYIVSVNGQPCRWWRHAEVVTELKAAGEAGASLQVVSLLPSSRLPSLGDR

[26] = target: T11, DLG3_2, Q92796
T11 sequence (Q92796 221-321, limits assumed, looked up): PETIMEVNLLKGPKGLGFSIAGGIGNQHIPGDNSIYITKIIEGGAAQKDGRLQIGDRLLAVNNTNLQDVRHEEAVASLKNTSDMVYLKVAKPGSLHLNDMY

[27] = target: MAGI1_2, Q96QZ7
Sequence of MAGI1_2, Q96QZ7 (Q96QZ7 456-580): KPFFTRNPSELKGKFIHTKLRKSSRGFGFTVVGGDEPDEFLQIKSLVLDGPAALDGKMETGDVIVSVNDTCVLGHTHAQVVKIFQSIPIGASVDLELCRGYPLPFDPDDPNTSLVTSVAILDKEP

[28] = plain residues with an end cap or a label only (N-terminal biotin on a linker: ado-ado)
[29] = plain residues with an end cap or a label only (N-terminal biotin on a linker: ahx)
[30] = plain residues with an end cap or a label only (N-terminal biotin on a linker: none)

Sequence of PDZRN4_1, Q6ZMN7 (Q6ZMN7 213-318): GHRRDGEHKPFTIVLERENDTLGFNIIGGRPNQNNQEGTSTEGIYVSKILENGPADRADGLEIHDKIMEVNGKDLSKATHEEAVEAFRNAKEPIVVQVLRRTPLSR
Sequence of NHERF2_2, Q15599 (Q15599 142-238): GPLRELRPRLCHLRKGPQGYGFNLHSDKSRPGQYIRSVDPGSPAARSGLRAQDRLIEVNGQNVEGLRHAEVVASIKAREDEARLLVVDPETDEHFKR

**Q.** Which results are given for QKNKDKEYYV [NRXN3_rs746444206, Q9Y4C0]?
**A.** pKd [1, 28]: below the threshold; pKd [2, 28]: below the threshold; pKd [3, 28]: 4.08; pKd [4, 28]: 3.53; pKd [5, 28]: below the threshold; pKd [6, 28]: 3.9; pKd [7, 28]: 3.56; pKd [8, 28]: below the threshold; pKd [9, 28]: below the threshold; pKd [10, 28]: 3.82; pKd [11, 28]: 4.12; pKd [12, 28]: 4.43; pKd [13, 28]: below the threshold; pKd [14, 28]: below the threshold; pKd [15, 28]: below the threshold; pKd [16, 28]: below the threshold; pKd [17, 28]: below the threshold; pKd [18, 28]: 4.28; pKd [19, 28]: below the threshold; pKd [20, 28]: 4.7; pKd [21, 28]: 4.47; pKd [22, 28]: below the threshold; pKd [23, 28]: below the threshold; pKd [24, 28]: 4.12; pKd [25, 28]: below the threshold; pKd [26, 28]: below the threshold; pKd [27, 28]: below the threshold

**Q.** HSGSYLVTSV [APC, P25054] was tested. Which pKd [1, 29] did it give?
**A.** below the threshold

**Q.** And the pKd [2, 29]?
**A.** below the threshold

**Q.** What about the pKd [3, 29] of the same binder?
**A.** 3.72

**Q.** And the pKd [4, 29]?
**A.** 4.23

**Q.** What about the pKd [5, 29] of the same binder?
**A.** 4.45

**Q.** What about the pKd [6, 29] of the same binder?
**A.** below the threshold

**Q.** And the pKd [7, 29]?
**A.** 4.98

**Q.** And the pKd [8, 29]?
**A.** below the threshold

**Q.** What about the pKd [9, 29] of the same binder?
**A.** below the threshold

**Q.** What about the pKd [10, 29] of the same binder?
**A.** 3.67

**Q.** And the pKd [11, 29]?
**A.** 3.61

**Q.** And the pKd [12, 29]?
**A.** below the threshold

**Q.** What about the pKd [13, 29] of the same binder?
**A.** 5.04

**Q.** What about the pKd [14, 29] of the same binder?
**A.** 4.31

**Q.** What about the pKd [15, 29] of the same binder?
**A.** 4.81

**Q.** And the pKd [16, 29]?
**A.** 4.22

**Q.** And the pKd [17, 29]?
**A.** 4.1

**Q.** And the pKd [18, 29]?
**A.** 4.64

**Q.** What about the pKd [19, 29] of the same binder?
**A.** 4.84

**Q.** And the pKd [20, 29]?
**A.** 4.56

**Q.** And the pKd [21, 29]?
**A.** 4.41

**Q.** And the pKd [22, 29]?
**A.** 4.38

**Q.** And the pKd [23, 29]?
**A.** below the threshold

**Q.** What about the pKd [24, 29] of the same binder?
**A.** below the threshold

**Q.** What about the pKd [25, 29] of the same binder?
**A.** 5.16

**Q.** What about the pKd [26, 29] of the same binder?
**A.** 5.07

**Q.** And the pKd [27, 29]?
**A.** 4.05

**Q.** What does the source list for DSKPPLPPDEWV [MERS-E, K9N5R3]?
**A.** pKd [1, 30]: below the threshold; pKd [2, 30]: 3.49; pKd [3, 30]: below the threshold; pKd [4, 30]: 3.87; pKd [5, 30]: below the threshold; pKd [6, 30]: 4.17; pKd [7, 30]: 3.59; pKd [8, 30]: below the threshold; pKd [9, 30]: below the threshold; pKd [10, 30]: below the threshold; pKd [11, 30]: 4.29; pKd [12, 30]: below the threshold; pKd [13, 30]: 4.52; pKd [14, 30]: below the threshold; pKd [15, 30]: 3.73; pKd [16, 30]: 3.91; pKd [17, 30]: below the threshold; pKd [18, 30]: 3.87; pKd [19, 30]: 3.55; pKd [20, 30]: 4.44; pKd [21, 30]: 4.57; pKd [22, 30]: 3.62; pKd [23, 30]: 4.16; pKd [24, 30]: below the threshold; pKd [25, 30]: below the threshold; pKd [26, 30]: 3.96; pKd [27, 30]: below the threshold
